Laboratory results reported in the supplement of paper PMC7125110.
± gives the standard error. For some assays here: This sample holds only a part of the variants without activity.

B1: glmS ribozyme (parent)
chain: AUAAAAGCGCCAGAACUACAGAAAUGUAGUUGACGAGGAGGAGGUUUAUCGAAUUUUCGGCGGAUGCCUCCAAA

What was measured:
Conditions in all cases: with glucosamine-6-phosphate
glucosamine-6-phosphate [1] = variants of: B1; experiment: kcat; higher = faster cleavage; RNA array
In short: (§1)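 Tiles of sequenced MiSeq chips were imaged over ~14 h at 37 °C. On them, barcoded ribozyme variants had been transcribed in situ by E. coli RNA polymerase and were tracked via a hybridised Cy3 probe while glucosamine-6-phosphate (40 μM to 10 mM) in HEPES/KCl/Mg(OAc)2 buffer flowed in. Per-tile medians, normalised to baseline and to non-cleaving reference variants, were fit to one- or two-exponential decays for kobs, and weighted Michaelis–Menten fits gave kcat and KM.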

glucosamine-6-phosphate [2] = variants of: B1; experiment: KM; higher = weaker cofactor use; RNA array
In short: as §1

glucosamine-6-phosphate [3] = variants of: B1; experiment: self-cleavage kobs at 640 uM GlcN6P; higher = faster cleavage; RNA array
In short: as §1

glucosamine-6-phosphate [4] = variants of: B1; experiment: self-cleavage kobs at 2500 uM GlcN6P; higher = faster cleavage; RNA array
In short: as §1

glucosamine-6-phosphate [5] = variants of: B1; experiment: self-cleavage kobs at 10000 uM GlcN6P; higher = faster cleavage; RNA array
In short: as §1

glucosamine-6-phosphate [6] = variants of: B1; experiment: self-cleavage kobs at 40 uM GlcN6P; higher = faster cleavage; RNA array
In short: as §1

glucosamine-6-phosphate [7] = variants of: B1; experiment: self-cleavage kobs at 160 uM GlcN6P; higher = faster cleavage; RNA array
In short: as §1

Variant: A33U C70G
- kcat (glucosamine-6-phosphate [1]): 1.5e-05 ± 1.8e-06 s⁻¹

Variant: A12U A39C A52G
- kcat (glucosamine-6-phosphate [1]): 0.000172 ± 2.4e-05 s⁻¹
- KM (glucosamine-6-phosphate [2]): 2140 ± 680 µM
- self-cleavage kobs at 640 uM GlcN6P (glucosamine-6-phosphate [3]): 4.67e-05 ± 1.3e-05 s⁻¹
- self-cleavage kobs at 2500 uM GlcN6P (glucosamine-6-phosphate [4]): 8.04e-05 ± 1.8e-05 s⁻¹
- self-cleavage kobs at 10000 uM GlcN6P (glucosamine-6-phosphate [5]): 0.00015 ± 2.7e-05 s⁻¹

Variant: G44C U65C
- self-cleavage kobs at 40 uM GlcN6P (glucosamine-6-phosphate [6]): < 1e-05 s⁻¹
- self-cleavage kobs at 160 uM GlcN6P (glucosamine-6-phosphate [7]): < 1e-05 s⁻¹
- self-cleavage kobs at 640 uM GlcN6P (glucosamine-6-phosphate [3]): < 1e-05 s⁻¹
- self-cleavage kobs at 10000 uM GlcN6P (glucosamine-6-phosphate [5]): < 1e-05 s⁻¹

Variant: C10G C67A
- kcat (glucosamine-6-phosphate [1]): 2.45e-05 ± 7.2e-06 s⁻¹

Variant: A14G G37C A48G
- kcat (glucosamine-6-phosphate [1]): 1.62e-05 ± 5.8e-06 s⁻¹

Variant: U49A C50G C68G
- self-cleavage kobs at 40 uM GlcN6P (glucosamine-6-phosphate [6]): 9.07e-05 ± 3.4e-05 s⁻¹

Variant: C11A U30A
- kcat (glucosamine-6-phosphate [1]): 0.000318 ± 4.7e-05 s⁻¹
- KM (glucosamine-6-phosphate [2]): 1940 ± 600 µM
- self-cleavage kobs at 640 uM GlcN6P (glucosamine-6-phosphate [3]): 8.58e-05 ± 1.7e-05 s⁻¹
- self-cleavage kobs at 2500 uM GlcN6P (glucosamine-6-phosphate [4]): 0.000146 ± 3.4e-05 s⁻¹
- self-cleavage kobs at 10000 uM GlcN6P (glucosamine-6-phosphate [5]): 0.000288 ± 4.4e-05 s⁻¹

Variant: U65A G66A
- kcat (glucosamine-6-phosphate [1]): 0.00068 ± 8.6e-05 s⁻¹
- KM (glucosamine-6-phosphate [2]): 1640 ± 390 µM
- self-cleavage kobs at 40 uM GlcN6P (glucosamine-6-phosphate [6]): 3.95e-05 ± 1.7e-05 s⁻¹
- self-cleavage kobs at 160 uM GlcN6P (glucosamine-6-phosphate [7]): 6.05e-05 ± 1.3e-05 s⁻¹
- self-cleavage kobs at 640 uM GlcN6P (glucosamine-6-phosphate [3]): 0.000177 ± 2.8e-05 s⁻¹
- self-cleavage kobs at 2500 uM GlcN6P (glucosamine-6-phosphate [4]): 0.000442 ± 6.9e-05 s⁻¹
- self-cleavage kobs at 10000 uM GlcN6P (glucosamine-6-phosphate [5]): 0.000577 ± 7.2e-05 s⁻¹

Variant: G38A G44C U47A
- self-cleavage kobs at 40 uM GlcN6P (glucosamine-6-phosphate [6]): < 1e-05 s⁻¹
- self-cleavage kobs at 10000 uM GlcN6P (glucosamine-6-phosphate [5]): < 1e-05 s⁻¹

Variant: U54G U56A G63U
- KM (glucosamine-6-phosphate [2]): 1560 ± 740 µM

Variant: G59A U65G
- self-cleavage kobs at 40 uM GlcN6P (glucosamine-6-phosphate [6]): < 1e-05 s⁻¹

Variant: C8U C61U
- self-cleavage kobs at 40 uM GlcN6P (glucosamine-6-phosphate [6]): < 1e-05 s⁻¹
- self-cleavage kobs at 160 uM GlcN6P (glucosamine-6-phosphate [7]): < 1e-05 s⁻¹
- self-cleavage kobs at 640 uM GlcN6P (glucosamine-6-phosphate [3]): < 1e-05 s⁻¹
- self-cleavage kobs at 2500 uM GlcN6P (glucosamine-6-phosphate [4]): < 1e-05 s⁻¹
- self-cleavage kobs at 10000 uM GlcN6P (glucosamine-6-phosphate [5]): < 1e-05 s⁻¹

Variant: C11A A12G
- kcat (glucosamine-6-phosphate [1]): 0.000158 ± 1.7e-05 s⁻¹
- KM (glucosamine-6-phosphate [2]): 3020 ± 720 µM
- self-cleavage kobs at 640 uM GlcN6P (glucosamine-6-phosphate [3]): 2.43e-05 ± 1.1e-05 s⁻¹
- self-cleavage kobs at 2500 uM GlcN6P (glucosamine-6-phosphate [4]): 8.06e-05 ± 2.3e-05 s⁻¹
- self-cleavage kobs at 10000 uM GlcN6P (glucosamine-6-phosphate [5]): 0.000119 ± 2.5e-05 s⁻¹

Variant: G7C A33G A53U A64G
- self-cleavage kobs at 40 uM GlcN6P (glucosamine-6-phosphate [6]): < 1e-05 s⁻¹
- self-cleavage kobs at 640 uM GlcN6P (glucosamine-6-phosphate [3]): < 1e-05 s⁻¹

Variant: G7C U31A
- self-cleavage kobs at 40 uM GlcN6P (glucosamine-6-phosphate [6]): < 1e-05 s⁻¹
- self-cleavage kobs at 640 uM GlcN6P (glucosamine-6-phosphate [3]): < 1e-05 s⁻¹
- self-cleavage kobs at 2500 uM GlcN6P (glucosamine-6-phosphate [4]): < 1e-05 s⁻¹
- self-cleavage kobs at 10000 uM GlcN6P (glucosamine-6-phosphate [5]): < 1e-05 s⁻¹

Variant: U2A A3U C50A
- self-cleavage kobs at 40 uM GlcN6P (glucosamine-6-phosphate [6]): < 1e-05 s⁻¹
- self-cleavage kobs at 10000 uM GlcN6P (glucosamine-6-phosphate [5]): 3.38e-05 ± 1.2e-05 s⁻¹

Variant: A12G G32U
- kcat (glucosamine-6-phosphate [1]): 0.00313 ± 0.00012 s⁻¹
- self-cleavage kobs at 160 uM GlcN6P (glucosamine-6-phosphate [7]): 4.1e-05 ± 8.1e-06 s⁻¹
- self-cleavage kobs at 640 uM GlcN6P (glucosamine-6-phosphate [3]): 0.000164 ± 1.8e-05 s⁻¹
- self-cleavage kobs at 2500 uM GlcN6P (glucosamine-6-phosphate [4]): 0.00055 ± 5.4e-05 s⁻¹
- self-cleavage kobs at 10000 uM GlcN6P (glucosamine-6-phosphate [5]): 0.00144 ± 0.00014 s⁻¹

Variant: G38A C61G
- kcat (glucosamine-6-phosphate [1]): 1.44e-05 ± 3.1e-06 s⁻¹

Variant: G13C C70A
- kcat (glucosamine-6-phosphate [1]): 1.11e-05 ± 3.3e-06 s⁻¹

Variant: C10U G40U C58A
- self-cleavage kobs at 40 uM GlcN6P (glucosamine-6-phosphate [6]): < 1e-05 s⁻¹
- self-cleavage kobs at 2500 uM GlcN6P (glucosamine-6-phosphate [4]): < 1e-05 s⁻¹
- self-cleavage kobs at 10000 uM GlcN6P (glucosamine-6-phosphate [5]): < 1e-05 s⁻¹

Variant: A42G A53C
- kcat (glucosamine-6-phosphate [1]): 0.00933 ± 0.0027 s⁻¹
- KM (glucosamine-6-phosphate [2]): 1540 ± 610 µM
- self-cleavage kobs at 40 uM GlcN6P (glucosamine-6-phosphate [6]): 0.000286 ± 5.1e-05 s⁻¹
- self-cleavage kobs at 160 uM GlcN6P (glucosamine-6-phosphate [7]): 0.000666 ± 0.00018 s⁻¹
- self-cleavage kobs at 640 uM GlcN6P (glucosamine-6-phosphate [3]): 0.00271 ± 0.00065 s⁻¹
- self-cleavage kobs at 2500 uM GlcN6P (glucosamine-6-phosphate [4]): 0.0112 ± 0.0032 s⁻¹
- self-cleavage kobs at 10000 uM GlcN6P (glucosamine-6-phosphate [5]): 0.0076 ± 0.0015 s⁻¹

Variant: C16A C61U C70A
- self-cleavage kobs at 40 uM GlcN6P (glucosamine-6-phosphate [6]): < 1e-05 s⁻¹

Variant: A14G C16A U17C A18U C19A A20C
- self-cleavage kobs at 40 uM GlcN6P (glucosamine-6-phosphate [6]): 0.000161 ± 4.5e-05 s⁻¹
- self-cleavage kobs at 10000 uM GlcN6P (glucosamine-6-phosphate [5]): 0.00427 ± 0.00081 s⁻¹

Variant: A64C C67U
- KM (glucosamine-6-phosphate [2]): 657 ± 190 µM
